Measured values from article PMC7007383 (Cancer discovery, 2019).

B1: Rhotekin RHOA-GTP binding domain (RBD) (domain or fragment, UniProt Q8C6B2 17-98, looked up)
chain: ALEMEFKRGRFRLSFFSESPEDTELQRKLDHEIRMRDGACKLLAACSQREQALEATKSLLVCNSRILSYMGELQRRKEAQVL
B2: mDia RHOA-GTP binding domain (RBD) (domain or fragment)
chain: LQDISDEQVLVLFEQMLVDMNLNEEKQQPLREKDIVIKREMVSQYLHTSKAGMNQKESSRSAMMYIQELRSGLRDMHLLSCLESLRVSLNNNPVSWVQTFGAEGLASLLDILKRLHDEKEETSGNYDSRNQHEIIRCLKAFMNNKFGIKTMLETEEGILLLVRAMDPAVPNMMIDAAKLLSALCILPQPEDMNERVLEAMTERAEMDEVERFQPLLDGLKSGTSIALKVGCLQLINALITPAEELDFRVHIRSELMRLGLHQVLQELREIENEDMKVQLCVFDEQGDEDFFDLKGRLDDIRMEMDDFGEVFQIILNTVKDSKAEPHFLSILQHLLLVRNDYEARPQYYKLIEECVSQIVLHKNGTD
B3: ROCK RHOA-GTP binding domain (RBD) (domain or fragment)
chain: TKDIEILRRENEELTEKMKKAEEEYKLEKEEEISNLKAAFEKNINTERTLKTQAVNKLAEIMNRKDF

How the values were obtained:
[1] = target: recombinant RHOA wild type (human, UniProt P61586 1-193); assay: other fluorescence titration
recombinant RHOA Y42C = recombinant RHOA Y42C (human, UniProt P61586 1-193, Y42C); assay: other fluorescence titration
Sequence of recombinant RHOA Y42C (P61586 whole entry Y42C): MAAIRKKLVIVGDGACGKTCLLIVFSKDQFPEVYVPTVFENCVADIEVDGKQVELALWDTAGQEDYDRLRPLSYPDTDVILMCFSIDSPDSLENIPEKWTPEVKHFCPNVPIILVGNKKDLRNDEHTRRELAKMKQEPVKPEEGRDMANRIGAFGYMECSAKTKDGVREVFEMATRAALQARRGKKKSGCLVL

Sequence of recombinant RHOA wild type (P61586 whole entry): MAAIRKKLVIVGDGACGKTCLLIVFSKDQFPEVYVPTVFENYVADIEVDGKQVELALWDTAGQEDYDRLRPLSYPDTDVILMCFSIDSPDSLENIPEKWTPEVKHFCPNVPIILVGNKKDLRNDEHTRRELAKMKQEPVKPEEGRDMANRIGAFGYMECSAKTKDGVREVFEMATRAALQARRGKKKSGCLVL

Row | Kd [1] [nM] | fold change of binding against RHOA WT (recombinant RHOA Y42C) [fold] | Binder
1 | 500 ± 40 |  | B1
2 | 460 ± 60 |  | B2
3 | 380 ± 30 | 12 | B3
